{"source": "paper PMC6101547", "about": "(Nucleic Acids Research, 2018)", "key": {"Rim1 (mitochondrial SSB) [1]": {"target": "T1, Rim1 (mitochondrial SSB) (Saccharomyces cerevisiae, UniProt P32445 17-135)", "T1 sequence": "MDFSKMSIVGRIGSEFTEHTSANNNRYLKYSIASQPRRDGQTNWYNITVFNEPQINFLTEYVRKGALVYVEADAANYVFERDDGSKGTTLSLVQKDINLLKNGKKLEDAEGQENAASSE", "experiment": "FRET titration"}, "Rim1 Y85H": {"target": "T2, Rim1 Y85H (Saccharomyces cerevisiae, UniProt P32445 17-135, Y85H)", "T2 sequence": "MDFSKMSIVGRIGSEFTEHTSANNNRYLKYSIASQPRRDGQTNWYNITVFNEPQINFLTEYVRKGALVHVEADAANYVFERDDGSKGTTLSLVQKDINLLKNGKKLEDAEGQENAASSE", "experiment": "sedimentation equilibrium"}, "Rim1 (mitochondrial SSB) [2]": {"target": "T1, Rim1 (mitochondrial SSB)", "experiment": "Cy3 fluorescence titration"}, "Rim1 (mitochondrial SSB) [3]": {"target": "T1, Rim1 (mitochondrial SSB)", "experiment": "Cy3 fluorescence titration", "remark": "listed apart in the source"}, "Rim1 (mitochondrial SSB) [4]": {"target": "T1, Rim1 (mitochondrial SSB)", "experiment": "Cy3 fluorescence titration", "remark": "listed apart in the source"}, "AUC [5]": {"target": "the molecule itself", "experiment": "AUC"}, "Rim1 (mitochondrial SSB) [6]": {"target": "T1, Rim1 (mitochondrial SSB)", "experiment": "Cy3 fluorescence titration", "remark": "listed apart in the source"}, "Rim1 (mitochondrial SSB) [7]": {"target": "T1, Rim1 (mitochondrial SSB)", "experiment": "sedimentation equilibrium"}, "Rim1 (mitochondrial SSB) [8]": {"target": "T1, Rim1 (mitochondrial SSB)", "experiment": "FRET titration", "remark": "listed apart in the source"}, "Rim1 (mitochondrial SSB) [9]": {"target": "T1, Rim1 (mitochondrial SSB)", "experiment": "FRET titration", "remark": "listed apart in the source"}, "AUC [10]": {"target": "the molecule itself", "experiment": "AUC", "remark": "listed apart in the source"}, "AUC [11]": {"target": "the molecule itself", "experiment": "AUC", "remark": "listed apart in the source"}}, "note": "Where two headings read alike, the source gives them in different places.", "data": [{"binder": "Cy5-dT68-Cy3-T (ssDNA, internal Cy3 before last T) DNA: TTTTTTTTTTTTTTTTTTTTTTTTTTTTTTTTTTTTTTTTTTTTTTTTTTTTTTTTTTTTTTTTTTTTT", "values": [{"measurement": "binding result", "setting": "Rim1 (mitochondrial SSB) [1]", "result": "binds"}]}, {"binder": "TTTTTTTTTTTTTTTTTTTT (ssDNA)", "note": "[Cy3-labeled dT20 (AUC)]", "values": [{"measurement": "binding result", "setting": "Rim1 Y85H", "result": "binds"}]}, {"binder": "TTTTTTTTTTTTTTTT (ssDNA, internal Cy3 before last T)", "note": "[dT15-Cy3-T]", "values": [{"measurement": "binding result", "setting": "Rim1 (mitochondrial SSB) [2]", "result": "binds"}]}, {"binder": "TTTTTTTTTTTTTTTTTTTTTTTTTTTTTTTTTTTTTTT (ssDNA, internal Cy3 before last T)", "note": "[dT38-Cy3-T]", "values": [{"measurement": "binding result", "setting": "Rim1 (mitochondrial SSB) [3]", "result": "binds"}]}, {"binder": "TTTTTTTTTTTTTTTTTTTTTTTTTTTTT (ssDNA, internal Cy3 before last T)", "note": "[dT28-Cy3-T]", "values": [{"measurement": "binding result", "setting": "Rim1 (mitochondrial SSB) [4]", "result": "binds"}]}, {"binder": "Human mitochondrial SSB, mitochondrial form (amino acids 17-148) (natural protein, UniProt Q04837 17-148, looked up) ESETTTSLVLERSLNRVHLLGRVGQDPVLRQVEGKNPVTIFSLATNEMWRSGDSEVYQLGDVSQKTTWHRISVFRPGLRDVAYQYVKKGSRIYLEGKIDYGEYMDKNNVRRQATTIIADNIIFLSDQTKEKE", "values": [{"measurement": "binding result", "setting": "AUC [5]", "result": "binds"}]}, {"binder": "TTTTTTTTTTTTTTTTTTTTT (ssDNA, internal Cy3 before last T)", "note": "[dT20-Cy3-T]", "values": [{"measurement": "binding result", "setting": "Rim1 (mitochondrial SSB) [6]", "result": "binds"}]}, {"binder": "TTTTTTTTTTTTTTT (ssDNA)", "note": "[Cy3-labeled dT15 (AUC)]", "values": [{"measurement": "binding result", "setting": "Rim1 (mitochondrial SSB) [7]", "result": "binds"}, {"measurement": "binding result", "setting": "Rim1 Y85H", "result": "binds"}]}, {"binder": "TTTTTTTTTTTTTTTTTTTTTTTTTTTTTTTTTTTTTTTTT (ssDNA, internal Cy3 before last T)", "note": "[Cy5.5-dT40-Cy3-T]", "values": [{"measurement": "binding result", "setting": "Rim1 (mitochondrial SSB) [8]", "result": "binds"}]}, {"binder": "TTTTTTTTTTTTTTTTTTTTTTTTTTTTTTTTTTTTTTTTTTTTTT (ssDNA, internal Cy3 before last T)", "note": "[Cy5.5-dT45-Cy3-T]", "values": [{"measurement": "binding result", "setting": "Rim1 (mitochondrial SSB) [9]", "result": "binds"}]}, {"binder": "Rim1 harboring the mutation Y85H (amino acids 17-135) (natural protein, S. cerevisiae, UniProt P32445 17-135, looked up) MDFSKMSIVGRIGSEFTEHTSANNNRYLKYSIASQPRRDGQTNWYNITVFNEPQINFLTEYVRKGALVHVEADAANYVFERDDGSKGTTLSLVQKDINLLKNGKKLEDAEGQENAASSE", "values": [{"measurement": "stoichiometry N", "setting": "AUC [10]", "result": 2}, {"measurement": "stoichiometry N", "setting": "AUC [11]", "result": 4}]}]}
